Assay results from PMC11161584.
pKd: −log10 of the molar value.

Target: PTRAMP-CSS heterodimer (Plasmodium thrombospondin-related apical merozoite protein with small cystei (P. falciparum (3D7 clone)))
Test: SPR

“RH5-interacting protein (RIPR), full-length soluble recombinant protein (from UniProt O97302 20-1086) (natural protein)” was tested. Which pKd did it give?
The pKd was 5.35.
